Test results reported in article PMC8760323, “Single-chain tandem macrocyclic peptides as a scaffold for growth factor and cytokine mimetics” (Communications Biology, 2022).
Positions of bridges follow the written chain, without caps; N, C: chain ends. No end group written: not given here.

Tests used:
human EPOR ectodomain-Fc = biological target: T1, human EPOR ectodomain-Fc (Homo sapiens, UniProt P19235); assay: SPR analysis, human EPOR ectodomain; type: binding; details: for binding against EPOR: exact dissociation constants not determinable, too slow dissociation
T1 construct: human EPOR ectodomain-Fc; purchased R&D Systems
T1 sequence (P19235 25-250 limits assumed): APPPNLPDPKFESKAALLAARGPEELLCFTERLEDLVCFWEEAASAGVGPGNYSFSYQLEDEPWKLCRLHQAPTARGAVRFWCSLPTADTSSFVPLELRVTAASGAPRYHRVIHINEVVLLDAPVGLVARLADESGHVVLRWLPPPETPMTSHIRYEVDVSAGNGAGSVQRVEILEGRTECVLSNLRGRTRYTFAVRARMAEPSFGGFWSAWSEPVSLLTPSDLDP
Description: (§1) Binding constants of the STaMPtides and monomeric macrocyclic peptides to their corresponding receptor ectodomains were determined by SPR analysis using Biacore T200 (Cytiva). HBS-EP + buffer (Cytiva) containing 0.1% dimethyl sulfoxide (DMSO; Sigma-Aldrich, St. Louis, MO, USA) was used as the running buffer. As ligands, recombinant human Met ectodomain-Fc and human EPOR ectodomain-Fc were immobilized to around 1000 response units on CM5 sensor chips using a human antibody capture kit (Cytiva). STaMPtides and monomeric macrocyclic peptides were injected in five concentrations at a flow rate of 30 μL/min using a single-cycle kinetics method. Binding constants were quantified by analysis of the 1:1 binding model.

EPOR = biological target: T2, EPOR (Homo sapiens, UniProt P19235); assay: EPOR-JAK2 functional assay (PathHunter); type: cell-based; details: for EPOR activation by serially diluted supernatants: decellularized supernatant; for EC50: purified, 3 h at room temperature, read-out: half-maximal effective concentration (EC50)
T2 sequence (P19235 25-508): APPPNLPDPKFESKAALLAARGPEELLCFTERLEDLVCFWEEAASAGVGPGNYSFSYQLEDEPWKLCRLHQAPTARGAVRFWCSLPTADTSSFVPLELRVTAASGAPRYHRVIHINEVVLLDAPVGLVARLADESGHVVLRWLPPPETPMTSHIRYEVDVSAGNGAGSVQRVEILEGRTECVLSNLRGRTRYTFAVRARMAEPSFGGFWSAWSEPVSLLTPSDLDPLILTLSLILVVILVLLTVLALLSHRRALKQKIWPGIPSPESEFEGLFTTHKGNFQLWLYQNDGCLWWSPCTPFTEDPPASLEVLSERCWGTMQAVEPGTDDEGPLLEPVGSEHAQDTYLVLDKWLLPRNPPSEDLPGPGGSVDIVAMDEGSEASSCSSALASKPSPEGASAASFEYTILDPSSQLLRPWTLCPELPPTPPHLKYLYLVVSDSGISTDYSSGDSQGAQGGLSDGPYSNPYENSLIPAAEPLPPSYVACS
Description: Agonistic activity against EPOR was assessed using the PathHunter® eXpress EpoR-JAK2 Functional Assay Kit (DiscoverX) according to the manufacturer’s instructions. Briefly, cells were seeded on a 96-well cell culture plate and incubated overnight in 5% CO2 at 37 °C. […] The cells were lysed with a substrate reagent, and chemiluminescence was detected using a Nivo plate reader (PerkinElmer).

[1] = biological target: T3, recombinant human Met ectodomain-Fc (Homo sapiens, UniProt P08581); assay: SPR analysis, human Met ectodomain; type: binding
T3 construct: recombinant human Met ectodomain-Fc; purchased R&D Systems
Description: as §1

Met = assay: Cell-based phospho-Met ELISA (HuCCT1 cells); parameters: species or system human; details: phospho-Met ELISA and Erk signaling reporter assay
Description: The phosphorylation level of Met was evaluated according to a previously reported method[6],[32], with slight modifications. In brief, HuCCT-1 cells at a density of 10,000 cells/well were seeded on 96-well cell culture plates and incubated overnight in 5% CO2 at 37 °C. The cells were stimulated by rhHGF, purified HGF mimetic STaMPtides, and monomeric aMD4dY for 10 min in a 5% CO2 incubator at 37 °C. Next, cells were fixed using 4% paraformaldehyde in phosphate-buffered saline (PBS) for 20 min. Cells were washed three times with PBS and blocked with 1% BSA and 0.02% Triton X-100 in PBS for 30 min at room temperature. Cells were incubated with 1:1000 diluted phospho-Met (Tyr1234/1235) (D26) XP Rabbit mAb (Cell Signaling Technology) supplemented with 1% BSA in PBS at 4 °C overnight. After washing three times with PBS, the cells were incubated with 1:1000 diluted […] HRP-linked IgG antibody (Cell Signaling Technology) supplemented with 1% BSA in PBS at room temperature for 3 h. Cells were washed four times with PBS and incubated with 100 μL TMB substrate for 30 min. The reaction was stopped with an equal volume of 0.2 N sulfuric acid, and absorbance was quantified at 450 nm by the Molecular Imager ChemiDoc XRS System (Bio-Rad).

[2] = biological target: T4, Recombinant human EPOR ectodomain-Fc (human, UniProt P19235 25-250); assay: SPR; Biacore T200; receptor ectodomain-Fc immobilised to around 1000 RU on CM5 chip by human antibody capture kit; peptides injected in five concentrations at 30 uL/min, single-cycle kinetics; HBS-EP+ buffer with 0.1% DMSO; 1:1 binding model; three runs (N 1-3) and their average
T4 construct: erythropoietin receptor (EPOR), human, ectodomain; Captured on the chip with a human antibody capture kit, by its Fc; also called EPOR-Fc; rhEPOR ectodomain-Fc; source: bought: R&D Systems
T4 sequence (looked up): T1 sequence (P19235 25-250 limits assumed)

[3] = biological target: T4, Recombinant human EPOR ectodomain-Fc; assay: SPR; Biacore T200; receptor ectodomain-Fc immobilised to around 1000 RU on CM5 chips with a human antibody capture kit; peptides injected in five concentrations at 30 uL/min, single-cycle kinetics; HBS-EP+ buffer with 0.1% DMSO; 1:1 binding model; mean and SD of triplicate experiments; details: both partners purified
hPBMCs = assay: Colony-forming assay; type: cell-based, human; details: at doses of 33 ng/mL or higher, 13 days
Description: Next, 1.1 mL of the mixture was seeded in a 6-well cell culture plate and cultured for 13 days in 5% CO2 at 37 °C. At day 13, colony numbers were counted, and images were taken by inverted microscopy and BZ-X fluorescence microscopy.

[4] = biological target: T5, Recombinant human Met ectodomain-Fc (human, UniProt P08581 25-932); assay: SPR; Biacore T200; receptor ectodomain-Fc immobilised to around 1000 RU on CM5 chips with a human antibody capture kit; peptides injected in five concentrations at 30 uL/min, single-cycle kinetics; HBS-EP+ buffer with 0.1% DMSO; 1:1 binding model; mean and SD of triplicate experiments; details: both partners purified
T5 construct: Met, receptor of hepatocyte growth factor, human, ectodomain; Captured on the chip with a human antibody capture kit, by its Fc; also called Met-Fc; source: bought: R&D Systems
T5 sequence (P08581 25-932): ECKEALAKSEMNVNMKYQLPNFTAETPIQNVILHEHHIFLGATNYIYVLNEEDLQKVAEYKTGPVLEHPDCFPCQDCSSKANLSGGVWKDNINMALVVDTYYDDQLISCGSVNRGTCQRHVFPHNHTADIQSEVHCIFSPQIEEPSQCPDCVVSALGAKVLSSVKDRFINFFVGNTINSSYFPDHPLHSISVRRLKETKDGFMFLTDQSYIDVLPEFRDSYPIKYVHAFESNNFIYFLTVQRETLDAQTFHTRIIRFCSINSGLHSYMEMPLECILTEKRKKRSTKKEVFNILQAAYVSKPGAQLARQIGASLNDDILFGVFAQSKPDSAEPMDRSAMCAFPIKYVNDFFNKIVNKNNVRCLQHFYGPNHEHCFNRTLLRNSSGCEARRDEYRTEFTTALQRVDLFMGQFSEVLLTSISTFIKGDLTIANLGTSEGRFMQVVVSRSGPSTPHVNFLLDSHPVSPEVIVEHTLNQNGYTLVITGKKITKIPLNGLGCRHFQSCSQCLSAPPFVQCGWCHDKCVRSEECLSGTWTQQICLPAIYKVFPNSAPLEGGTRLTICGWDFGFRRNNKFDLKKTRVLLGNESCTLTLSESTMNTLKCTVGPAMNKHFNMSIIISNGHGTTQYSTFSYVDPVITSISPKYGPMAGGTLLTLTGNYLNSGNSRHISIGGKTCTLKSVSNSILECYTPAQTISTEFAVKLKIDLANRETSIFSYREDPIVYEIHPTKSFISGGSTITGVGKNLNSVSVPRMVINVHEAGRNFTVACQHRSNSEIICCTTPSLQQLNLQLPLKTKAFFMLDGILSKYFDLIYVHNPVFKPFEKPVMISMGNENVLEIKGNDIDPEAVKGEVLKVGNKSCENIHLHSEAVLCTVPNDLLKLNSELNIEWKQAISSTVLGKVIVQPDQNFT

T3 sequence (P08581 25-932 limits assumed): as the sequence (P08581 25-932) above

For CSCC[C@@H]1NC(=O)[C@H](Cc2c[nH]cn2)NC(=O)[C@@H](NC(=O)[C@H](C)NC(=O)[C@H](Cc2ccc(O)cc2)NC(=O)[C@H](CC(C)C)NC(=O)CNC(=O)CN)CSSC[C@@H](C(=O)N[C@@H](CCC(N)=O)C(=O)N2CCC[C@H]2C(=O)N[C@@H](CC(C)C)C(=O)N[C@@H](CCCNC(=N)N)C(=O)NCC(=O)O)NC(=O)[C@H](C(C)C)NC(=O)[C@H](Cc2c[nH]c3ccccc23)NC(=O)[C@H]([C@@H](C)O)NC(=O)[C@H](CCSC)NC(=O)[C@@H]2CCCN2C(=O)CNC1=O [EMP35, reference compound], the kd (human EPOR ectodomain-Fc; Table S1, Average of N 1-3) was 1e-05 M⁻¹ s⁻¹, the KD (human EPOR ectodomain-Fc; Table S1, N 1) was 0.089 nM and the kd (human EPOR ectodomain-Fc; Table S1, N 1) was 1e-05 M⁻¹ s⁻¹. For the same molecule, the KD (human EPOR ectodomain-Fc; Table S1, N 2) was 0.15 nM, the kd (human EPOR ectodomain-Fc; Table S1, N 2) was 1e-05 M⁻¹ s⁻¹ and the KD (human EPOR ectodomain-Fc; Table S1, N 3) was 1.3 nM. For the same molecule, the kd (human EPOR ectodomain-Fc; Table S1, N 3) was 1e-05 M⁻¹ s⁻¹, the “binding against EPOR” value (human EPOR ectodomain-Fc) was “strong binding potency” and the “agonist potency weaker than STaMPtides” value (EPOR) was ~ 1000 times.

For “AETGGLYACHMGPMTWVCQPLRGAAPAAPAPGGLYACHMGPMTWVCQPLRG (disulfide 9-18, 37-46) [EMP-PA8]”, the “association rate higher than that of EMP35” value (human EPOR ectodomain-Fc) was 5–10 times, the Kd (human EPOR ectodomain-Fc; Table S1, Average of N 1-3) was 0.03 nM and the kd (human EPOR ectodomain-Fc; Table S1, Average of N 1-3) was 1e-05 M⁻¹ s⁻¹. It also gave a KD (human EPOR ectodomain-Fc; Table S1, N 1) of 0.034 nM, a kd (human EPOR ectodomain-Fc; Table S1, N 1) of 1e-05 M⁻¹ s⁻¹ and a KD (human EPOR ectodomain-Fc; Table S1, N 2) of 0.026 nM. For the same molecule, the kd (human EPOR ectodomain-Fc; Table S1, N 2) was 1e-05 M⁻¹ s⁻¹, the KD (human EPOR ectodomain-Fc; Table S1, N 3) was 0.03 nM and the kd (human EPOR ectodomain-Fc; Table S1, N 3) was 1e-05 M⁻¹ s⁻¹. The “binding against EPOR” value (human EPOR ectodomain-Fc) was “strong binding potency”, the “EPOR activation by serially diluted supernatants” value (EPOR) was “activated EPOR, even at high dilutions” and the EC50 (EPOR) was 0.022 nM.

For “aMD4dY: modified macrocyclic Met-binding peptide: aMD4 without N-terminal D-Tyr, disulfide instead of thioether linkage (CRQFNRRTHEVWNLDC-OH; disulfide 1-16; N-terminus assumed; SMILES CC(C)C[C@@H]1NC(=O)[C@H](CC(N)=O)NC(=O)[C@H](Cc2c[nH]c3ccccc23)NC(=O)[C@H](C(C)C)NC(=O)[C@H](CCC(=O)O)NC(=O)[C@H](Cc2c[nH]cn2)NC(=O)[C@H]([C@@H](C)O)NC(=O)[C@H](CCCNC(=N)N)NC(=O)[C@H](CCCNC(=N)N)NC(=O)[C@H](CC(N)=O)NC(=O)[C@H](Cc2ccccc2)NC(=O)[C@H](CCC(N)=O)NC(=O)[C@H](CCCNC(=N)N)NC(=O)[C@@H](N)CSSC[C@@H](C(=O)O)NC(=O)[C@H](CC(=O)O)NC1=O)”, the “binding to human Met” value [1] was “retained its binding capacity to human Met”, the kd ([1]; Table S1, Average of N 1-3) was 0.045 M⁻¹ s⁻¹ and the KD ([1]; Table S1, N 1) was 39 nM. It also gave a kd ([1]; Table S1, N 1) of 0.04 M⁻¹ s⁻¹, a KD ([1]; Table S1, N 2) of 53 nM and a kd ([1]; Table S1, N 2) of 0.05 M⁻¹ s⁻¹. The KD ([1]; Table S1, N 3) was 44 nM, the kd ([1]; Table S1, N 3) was 0.044 M⁻¹ s⁻¹ and the “Met phosphorylation and Erk-SRE signaling activation” value (Met) was “did not activate Met”.

B1: EMP-PA22 (designed binder)
chain: AETGGLYACHMGPMTWVCQPLRGAAPAAPAPAAPAAPAPAAPAAPGGLYACHMGPMTWVCQPLRG
modifications: disulfide 9-18, 51-60 (inferred)
notes: Expressed with the CspB signal peptide of C. glutamicum ATCC13869; also called EMP-PA22 (STaMPtide); EPO mimetic STaMPtide; source: C. glutamicum YPS010, secreted into the supernatant, purified (RP-HPLC)
For B1, the Kd [2] was under 0.0104 nM and the Kd [3] was under 0.013 nM.

B2: EMP-PA22: EPO mimetic STaMPtide, EMP35 dimerized with 22-amino-acid PA linker (peptide)
chain: B1 chain
modifications: disulfide 9-18, 51-60 (inferred)
B2 was tested, and the “association rate higher than that of EMP35” value (human EPOR ectodomain-Fc) was 5–10 times, the kd (human EPOR ectodomain-Fc; Table S1, Average of N 1-3) was 1e-05 M⁻¹ s⁻¹ and the KD (human EPOR ectodomain-Fc; Table S1, N 1) was 0.014 nM. The kd (human EPOR ectodomain-Fc; Table S1, N 1) was 1e-05 M⁻¹ s⁻¹, the KD (human EPOR ectodomain-Fc; Table S1, N 2) was 0.015 nM and the kd (human EPOR ectodomain-Fc; Table S1, N 2) was 1e-05 M⁻¹ s⁻¹. The KD (human EPOR ectodomain-Fc; Table S1, N 3) was 0.01 nM, the kd (human EPOR ectodomain-Fc; Table S1, N 3) was 1e-05 M⁻¹ s⁻¹ and the “binding against EPOR” value (human EPOR ectodomain-Fc) was “strong binding potency”. The “EPOR activation by serially diluted supernatants” value (EPOR) was “activated EPOR, even at high dilutions”, the EC50 (EPOR) was 0.22 nM and the “erythroid colony formation efficiency” value (hPBMCs) was “equivalent to or higher than that of 10 ng/mL of rhEPO”.

B3: EMP-PA8 (designed binder)
chain: AETGGLYACHMGPMTWVCQPLRGAAPAAPAPGGLYACHMGPMTWVCQPLRG
modifications: disulfide 9-18, 37-46 (inferred)
notes: Expressed with the CspB signal peptide of C. glutamicum ATCC13869; also called EMP-PA8 (STaMPtide); EPO mimetic STaMPtide; source: C. glutamicum YPS010, secreted into the supernatant, purified (RP-HPLC)
In the case of B3, the Kd [2] is reported as under 0.0257 nM and the Kd [3] is reported as under 0.03 nM.

B4: aMD4dY (peptide)
peptide: CRQFNRRTHEVWNLDC-OH
modifications: disulfide 1-16; N-terminus assumed
SMILES: CC(C)C[C@@H]1NC(=O)[C@H](CC(N)=O)NC(=O)[C@H](Cc2c[nH]c3ccccc23)NC(=O)[C@H](C(C)C)NC(=O)[C@H](CCC(=O)O)NC(=O)[C@H](Cc2c[nH]cn2)NC(=O)[C@H]([C@@H](C)O)NC(=O)[C@H](CCCNC(=N)N)NC(=O)[C@H](CCCNC(=N)N)NC(=O)[C@H](CC(N)=O)NC(=O)[C@H](Cc2ccccc2)NC(=O)[C@H](CCC(N)=O)NC(=O)[C@H](CCCNC(=N)N)NC(=O)[C@@H](N)CSSC[C@@H](C(=O)O)NC(=O)[C@H](CC(=O)O)NC1=O
notes: also called aMD4dY (Monomer); monomeric aMD4dY; source: synthetic peptide (GenScript Japan)
B4 was tested, and the Kd [4] was 45 nM.

B5: EMP35 (peptide)
peptide: GGLYACHMGPMTWVCQPLRG
modifications: disulfide 6-15
notes: also called EMP35 (Monomer); monomeric EMP35; source: synthetic peptide (GenScript Japan)
Work on B5 yielded a Kd [2] of under 0.0887 nM and a Kd [3] of under 0.5 nM.
